In patent US20250352659A1, “SELF-STABILIZING LINKER CONJUGATES” (priority 2023, published 2025):

What was measured:
Format in all cases: physicochemical
[1] = Conjugator-antibody conjugate maleimide hydrolysis (ring opening) kinetics by reduced LCMS; details: for half-life: buffer, pH 7.0, time for 50% of the maleimide rings to open, read-out: RO T1/2 (converted); for RO Completed Time (>95%): pH 7, time for the maleimide ring to open in more than 95% of the conjugators
Procedure: After the conjugation step, the ADC (or conjugator-antibody conjugate) was subjected to buffer exchange into ring opening buffer (pH 6.5˜9.0, PBS, borate or tris buffer) and the solution was left at 22 or 37° C. for 1˜48 h. The maleimide ring opening process was monitored via reduced LCMS. Once the conjugated maleimide hydrolysis was completed, the resulting ADCs were buffer exchanged into basic tris pH 8.0-8.5 buffer or acidic histidine-acetate pH 5.0-6.5 buffer via dialysis.
LCMS method to monitor and determine maleimide hydrolysis. LC-MS analysis was carried out under the following measurement conditions: • LC-MS system: Vanquish Flex UHPLC and Orbitrap Exploris 240 Mass Spectrometer • Column: MAbPac™ RP, 2.1*50 mm, 4 μm, 1,500 Å, Thermo Scientific™ • Column temperature: 80° C. • Mobile phase A: 0.1% formic acid (FA) aqueous solution • Mobile phase B: Acetonitrile solution containing 0.1% formic acid (FA) • Gradient program 1: 25% B-25% B (0 min-2 min), 25% B-50% B (2 min-18 min), 50% B-90% B (18 min-18.1 min), 90% B-90% B (18.1 min-20 min), 90% B-25% B (20 min-20.1 min), 25% B-25% B (20.1 min-25 min) • Gradient program 2 • Injected sample amount: 2 μg • MS parameters: Intact and denaturing MS data were acquired in HMR mode at setting of R=15k and deconvolved using the ReSpect™ algorithm and Sliding Window integration in Thermo Scientific™ BioPharma Finder™ 4.0 software.
Results for ring opening times measured by the LCMS method described above for monitoring ring hydrolysis are presented in Table 3 as RO T1/2 (h) (i.e., the time, in hours, for 50% of the maleimide rings to open).
Conjugator-antibody conjugate maleimide hydrolysis (ring opening) kinetics are presented in FIGS. 1A-1L, Table 3 (for pH 7.0 reaction conditions, hydrolysis T1/2), and Table 5. The data in Table 5 was generated by the LCMS method described above and includes the time, in hours, for the maleimide ring to open in more than 95% of the conjugators, after antibody conjugation (“RO Completed Time (>95%) (h)”). The results for conjugator-antibody conjugate 3-1 indicate that after 24 hours, about 0% of maleimide rings were open; the results for conjugator-antibody conjugate 3-3 indicate that after 24 hours, about 28% of maleimide rings were open.

[2] = Conjugator-antibody conjugate stability in pH 7.4 and 8.0 buffer with and without GSH;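 further: conjugate hydrolysis tracked by LC-MS analysis of reduced samples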
[3] = Conjugator-antibody conjugate stability in formulation buffer (pH 5.5 20 mM histidine buffer); details: pH 5.5, 22 °C
Procedure: After the conjugation and hydrolysis steps described above (see “DAR8 antibody drug conjugate/conjugator-antibody conjugate preparation”), conjugator-antibody conjugates were incubated in formulation buffer (pH 5.5 20 mM histidine buffer) or glutathione (GSH) buffer (pH 7.4 or 8.0), […] Hydrolysis status was monitored via reduced LCMS. Results are presented in Table 6, Table 7, and FIGS. 2A-23B.

Row | Structure (SMILES) | half-life [1] | MS DAR ([1]; pH 7, time point 1 h) | RO (%) LC ([1]; pH 7, time point 1 h) | MS DAR ([1]; pH 7, time point 3 h) | RO (%) HC ([1]; pH 7, time point 3 h) | RO (%) LC ([1]; pH 7, time point 3 h) | RO (%) Total ([1]; pH 7, time point 3 h) | MS DAR ([1]; pH 7, time point 5 h) | RO (%) HC ([1]; pH 7, time point 5 h) | RO (%) LC ([1]; pH 7, time point 5 h) | RO (%) Total ([1]; pH 7, time point 5 h) | MS DAR ([1]; pH 7, time point 7 h) | RO (%) HC ([1]; pH 7, time point 7 h) | RO (%) LC ([1]; pH 7, time point 7 h) | RO (%) Total ([1]; pH 7, time point 7 h) | MS DAR ([1]; pH 7, time point 24 h) | RO (%) HC ([1]; pH 7, time point 24 h) | RO (%) LC ([1]; pH 7, time point 24 h) | RO (%) Total ([1]; pH 7, time point 24 h) | RO Completed Time (>95%) [1] | further results
1 | CN(C)C(=O)CCNC(=O)NCC(CN)N1C(=O)C=CC1=O (stereo not shown) [3-12] | 1.6 h | 8 | 27.31% | 8 | 89.82% | 74.84% | 86.08% | 8 | 95.33% | 78.30% | 91.07% | 8 | 99.07% | 88.53% | 96.44% | 8 | 99.64% | 95.87% | 98.70% | 7 h | RO (%) HC ([1]; pH 7, time point 1 h): 45.46%; RO (%) Total ([1]; pH 7, time point 1 h): 40.92%; MS DAR ([2]; incubation 24 h, pH 7.4, 22 °C): 8.00; MS DAR ([2]; incubation 24 h, pH 7.4, 37 °C): 8.00; MS DAR ([2]; incubation 24 h, pH 8.0, 22 °C): 8.00; MS DAR-T = 168 h ([3]; incubation 168 h): 8.02; Maleimide ring opening ratio (%) at T = 168 h ([3]; incubation 168 h): 97.83%; MS DAR-T = 0 h [3]: 8.02
2 | CC(C)N(CCC(=O)N(C)C)C(=O)OCC(CN)N1C(=O)C=CC1=O (stereo not shown) [3-9] | 0.8 h | 7.94 | 40.06% | 7.94 | 99.84% | 79.93% | 94.86% | 7.96 | 99.07% | 89.36% | 96.64% | 7.96 | 100% | 93.56% | 98.39% | 7.96 | 100% | 99.17% | 99.79% | 5 h | RO (%) HC ([1]; pH 7, time point 1 h): 66.09%; RO (%) Total ([1]; pH 7, time point 1 h): 59.58%; MS DAR ([2]; incubation 20 h, pH 7.4, 22 °C): 8.00; MS DAR ([2]; incubation 20 h, pH 7.4, 37 °C): 8.00; MS DAR ([2]; incubation 20 h, pH 8.0, 22 °C): 8.00; MS DAR-T = 168 h ([3]; incubation time printed 240 h): 8.00; Maleimide ring opening ratio (%) at T = 168 h ([3]; incubation time printed 240 h): 98.51%; MS DAR-T = 0 h [3]: 8.00
3 | CN(C)C(=O)CCOCCC(CN)N1C(=O)C=CC1=O (stereo not shown) [3-14] | 2 h | 8 | 17.39% | 8 | 67.87% | 32.97% | 59.15% | 8 | 85.71% | 77.46% | 83.65% | 8 | 95.45% | 72.00% | 89.59% | 8 | 99.69% | 95.83% | 98.73% | 24 h | RO (%) HC ([1]; pH 7, time point 1 h): 46.79%; RO (%) Total ([1]; pH 7, time point 1 h): 39.44%; MS DAR ([2]; incubation 24 h, pH 7.4, 22 °C): 7.98; MS DAR ([2]; incubation 24 h, pH 7.4, 37 °C): 8.00; MS DAR ([2]; incubation 24 h, pH 8.0, 22 °C): 8.00; MS DAR-T = 168 h ([3]; incubation 168 h): 8.00; Maleimide ring opening ratio (%) at T = 168 h ([3]; incubation 168 h): 97.15%; MS DAR-T = 0 h [3]: 8.00
4 | NCC(COC(=O)NCCOCCOCCOCCOCCC(=O)O)N1C(=O)C=CC1=O (stereo not shown) [3-4] | 1.6 h | 7.96 | 23.19% | 7.98 | 88.19% | 75.33% | 84.98% | 7.98 | 90.01% | 87.91% | 89.49% | 7.98 | 99.07% | 95.37% | 98.15% | 7.98 | 99.08% | 99.66% | 99.23% | 7 h | RO (%) HC ([1]; pH 7, time point 1 h): 51.56%; RO (%) Total ([1]; pH 7, time point 1 h): 44.47%; MS DAR ([2]; incubation 20 h, pH 7.4, 22 °C): 8.00; MS DAR ([2]; incubation 20 h, pH 7.4, 37 °C): 8.00; MS DAR ([2]; incubation 20 h, pH 8.0, 22 °C): 8.00; MS DAR-T = 168 h ([3]; incubation 168 h): 8.00; Maleimide ring opening ratio (%) at T = 168 h ([3]; incubation 168 h): 98.86%; MS DAR-T = 0 h [3]: 8.00
5 | CN(C)C(=O)CCCCC(CN)N1C(=O)C=CC1=O (stereo not shown) [3-10] | 2 h | 8 | 21.63% | 8 | 76.09% | 49.46% | 69.43% | 8 | 91.86% | 64.05% | 84.91% | 8 | 98.26% | 83.47% | 94.56% | 8 | 99.52% | 100% | 99.64% | 7 h | RO (%) HC ([1]; pH 7, time point 1 h): 42.51%; RO (%) Total ([1]; pH 7, time point 1 h): 37.29%; MS DAR ([2]; incubation 20 h, pH 7.4, 22 °C): 8.00; MS DAR ([2]; incubation 20 h, pH 7.4, 37 °C): 8.00; MS DAR ([2]; incubation 20 h, pH 8.0, 22 °C): 8.00; MS DAR-T = 168 h ([3]; incubation 168 h): 8.00; Maleimide ring opening ratio (%) at T = 168 h ([3]; incubation 168 h): 98.38%; MS DAR-T = 0 h [3]: 8.00
6 | CN(C)C(=O)CN(C)C(=O)OCC(CN)N1C(=O)C=CC1=O (stereo not shown) [3-8] | 1.6 h | 7.74 | 44.94% | 7.88 | 96.11% | 80.15% | 92.12% | 7.78 | 99.49% | 92.96% | 97.85% | 7.8 | 99.47% | 94.42% | 98.21% | 7.8 | 99.55% | 95.48% | 98.53% | 5 h | MS DAR ([2]; incubation 20 h, pH 7.4, 22 °C): 7.92; MS DAR ([2]; incubation 20 h, pH 7.4, 37 °C): 7.92; MS DAR ([2]; incubation 20 h, pH 8.0, 22 °C): 7.88; MS DAR-T = 168 h ([3]; incubation 168 h): 7.80; Maleimide ring opening ratio (%) at T = 168 h ([3]; incubation 168 h): 95.50%; MS DAR-T = 0 h [3]: 7.76
